Assay results from publication PMC2809015 (Biochemistry, 2009).
Several values for one entry are separate records, joined by “and”; a condition that tells them apart may be missing. Equal entries are not always repeated. Where two headings read alike, the source gives them in different places.

T1: HscA, Hsp70-class molecular chaperone of the isc operon (E. coli, UniProt P0A6Z1 1-616)
T1 sequence (looked up): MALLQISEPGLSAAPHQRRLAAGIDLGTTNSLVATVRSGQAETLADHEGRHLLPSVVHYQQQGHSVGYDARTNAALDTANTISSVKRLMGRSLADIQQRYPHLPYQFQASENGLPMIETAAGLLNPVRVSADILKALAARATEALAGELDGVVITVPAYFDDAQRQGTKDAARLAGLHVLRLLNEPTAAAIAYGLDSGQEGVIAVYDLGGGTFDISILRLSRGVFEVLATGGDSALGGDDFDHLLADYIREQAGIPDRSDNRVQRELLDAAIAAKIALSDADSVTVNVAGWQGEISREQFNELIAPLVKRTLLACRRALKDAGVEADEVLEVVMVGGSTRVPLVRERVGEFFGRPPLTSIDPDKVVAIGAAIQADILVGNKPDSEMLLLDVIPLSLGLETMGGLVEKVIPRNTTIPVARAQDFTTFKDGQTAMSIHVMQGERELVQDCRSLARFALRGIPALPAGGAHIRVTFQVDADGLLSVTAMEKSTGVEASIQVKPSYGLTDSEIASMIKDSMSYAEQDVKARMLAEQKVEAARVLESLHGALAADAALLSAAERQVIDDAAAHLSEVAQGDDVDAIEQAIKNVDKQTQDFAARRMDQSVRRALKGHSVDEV

B1: dethiobiotin synthase (BioD) (enzyme)
chain: SKRYFVTGTDTEVGKTVASCALLQAAKAAGYRTAGYKPVASGSEKTPEGLRNSDALALQRNSSLQLDYATVNPYTFAEPTSPHIISAQEGRPIESLVMSAGLRALEQQADWVLVEGAGGWFTPLSDTFTFADWVTQEQLPVILVVGVKLGCINHAMLTAQVIQHAGLTLAGWVANDVTPPGKRHAEYMTTLTRMIPAPLLGEIPWLAENPENAATGKYINLALL
B2: BioB containing one [2Fe-2S]2+ cluster per monomer (enzyme, E. coli, UniProt P12996 1-346, looked up)
chain: MAHRPRWTLSQVTELFEKPLLDLLFEAQQVHRQHFDPRQVQVSTLLSIKTGACPEDCKYCPQSSRYKTGLEAERLMEVEQVLESARKAKAAGSTRFCMGAAWKNPHERDMPYLEQMVQGVKAMGLEACMTLGTLSESQAQRLANAGLDYYNHNLDTSPEFYGNIITTRTYQERLDTLEKVRDAGIKVCSGGIVGLGETVKDRAGLLLQLANLPTPPESVPINMLVKVKGTPLADNDDVDAFDFIRTIAVARIMMPTSYVRLSAGREQMNEQTQAMCFMAGANSIFYGCKLLTTPNPEEDKDLQLFRKLGLNPQQTAVLAGDNEQQQRLEQALMTPDTDEYYNAAAL
B3: BioB containing both [2Fe-2S]2+ and [4Fe-4S]2+ clusters (enzyme, E. coli, UniProt P12996 1-346, looked up)
chain: B2 chain
B4: BioB apoprotein (His6-biotin synthase lacking both iron-sulfur clusters) (enzyme, E. coli, UniProt P12996 1-346, looked up)
chain: B2 chain
B5: HscA substrate binding domain (SBD-HscA, residues 389-616) (domain or fragment, E. coli, UniProt P0A6Z1 389-616, looked up)
chain: LDVIPLSLGLETMGGLVEKVIPRNTTIPVARAQDFTTFKDGQTAMSIHVMQGERELVQDCRSLARFALRGIPALPAGGAHIRVTFQVDADGLLSVTAMEKSTGVEASIQVKPSYGLTDSEIASMIKDSMSYAEQDVKARMLAEQKVEAARVLESLHGALAADAALLSAAERQVIDDAAAHLSEVAQGDDVDAIEQAIKNVDKQTQDFAARRMDQSVRRALKGHSVDEV

Columns and labels:
[1] = molecular target: T1, HscA, Hsp70-class molecular chaperone …; assay: molecular weight filtration assay
[2] = molecular target: T1, HscA, Hsp70-class molecular chaperone …; assay: molecular weight filtration assay; remark: listed apart in the source
[3] = molecular target: T1, HscA, Hsp70-class molecular chaperone …; assay: molecular weight filtration assay; remark: listed apart in the source
AUC [4] = molecular target: the molecule itself; assay: AUC
[5] = molecular target: T1, HscA, Hsp70-class molecular chaperone …; assay: AUC
[6] = molecular target: T1, HscA, Hsp70-class molecular chaperone …; assay: molecular weight filtration assay; remark: listed apart in the source
[7] = molecular target: B5; assay: molecular weight filtration assay
AUC [8] = molecular target: the molecule itself; assay: AUC; remark: listed apart in the source
[9] = molecular target: B2; assay: molecular weight filtration assay

B1
Kd [1]: ≥ 1100 µM

B2
Kd [2]: ~5 µM
Kd [3]: 5.5 µM and 5.6 µM
stoichiometry N (AUC [4]): 2
Kd [5]: 12 µM
stoichiometry N [5]: 1 HscA per BioB dimer and 2 HscA per BioB dimer
stoichiometry N [6]: ~1 HscA per BioB dimer
stoichiometry N [7]: 1

B3
stoichiometry N [6]: ~1 HscA per BioB dimer

B4
stoichiometry N (AUC [8]): 2
stoichiometry N [6]: 0.96 apoBioB dimer per HscA

B5
Kd [9]: 0.55 ± 0.3 µM
